This passage reports stoichiometry N results from PMC3946371.

The target of this assay is Vaccinia virus D4 with non-cleavable N-terminal His-tag, co-expressed with MBP-A20(1-50) (vaccinia virus (Copenhagen strain)) (UniProt P20536). Kind of assay: SEC-MALS. In general terms: SEC sorts molecules by how far they enter the pores of the column.

In general, stoichiometry N refers to the number of molecules, sites or subunits per partner or assembly. With “First 50 amino acids of vaccinia virus A20, wild type, released from MBP by TEV (from UniProt P20995 1-50) (domain or fragment)”, the stoichiometry N turned out to be 1.
